Source: doi:10.1101/2025.10.21.683800 (bioRxiv, 2025)
Read-outs that look alike come from different tables or passages of the source.

Experiments:
MBP-FLAG-PPP1CC-His [1] = molecular target: T1, MBP-FLAG-PPP1CC-His (human, UniProt P36873 1-323); experiment: ITC
MBP-FLAG-PPP1CC-His [2] = molecular target: T1, MBP-FLAG-PPP1CC-His; experiment: ITC; remark: listed apart in the source

T1 sequence (P36873 whole entry): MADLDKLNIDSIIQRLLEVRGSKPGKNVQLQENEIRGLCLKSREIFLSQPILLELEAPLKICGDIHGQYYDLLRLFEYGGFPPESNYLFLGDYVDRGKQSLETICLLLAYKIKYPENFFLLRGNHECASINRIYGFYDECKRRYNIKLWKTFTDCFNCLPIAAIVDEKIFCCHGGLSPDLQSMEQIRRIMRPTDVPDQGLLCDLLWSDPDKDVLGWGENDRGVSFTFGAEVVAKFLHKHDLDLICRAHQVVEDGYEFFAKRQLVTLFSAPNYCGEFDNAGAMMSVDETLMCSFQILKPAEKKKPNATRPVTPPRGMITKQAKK

Kd (MBP-FLAG-PPP1CC-His [1]): 1130 nM
Kd (MBP-FLAG-PPP1CC-His [2]): 3.59 µM
B1: recombinant PPP1R2 (natural protein)
chain: MAASTASHRPIKGILKNKTSTTSSMVASAEQPRGNVDEELSKKSQKWDEMNILATYHPADKDYGLMKIDEPSTPYHSMMGDDEDACSDTEATEAMAPDILARKLAAAEGLEPKYRIQEQESSGEEDSDLSPEEREKKRQFEMKRKLHYNEGLNIKLARQLISKDLHDDDEDEEMLETADGESMNTEESNQGSTPSDQQQNKLRSS
